The target in one assay is HLA-B*08:01. Kind of assay: IEDB peptide-MHC binding, purified MHC/competitive/radioactivity; filed as Kd, often an IC50 or EC50 that approximates it; ≥ and ≤ were set here for values at or beyond the usual limits of such assays.
Assay [1] addresses HLA-A*02:01. As to the kind of experiment: IEDB peptide-MHC binding, purified MHC/competitive/fluorescence; ≥ and ≤ were set here for values at or beyond the usual limits of such assays.
A further assay deals with HLA-B*44:03. As to the kind of experiment: IEDB peptide-MHC binding, purified MHC/competitive/radioactivity; filed as Kd, often an IC50 or EC50 that approximates it; ≥ and ≤ were set here for values at or beyond the usual limits of such assays. As to conditions: source organism: Dengue virus 1 Brazil/97-11/1997.
In the next assay the target is HLA-B*40:01. Described as above. As to conditions: source organism: Dengue virus 1 Brazil/97-11/1997.
For the next assay, the target named is HLA-B*44:02. The assay is described as above. To be noted: source organism: Dengue virus 1 Brazil/97-11/1997.
A further assay concerns the target HLA-A*69:01. Kind of assay: IEDB peptide-MHC binding, purified MHC/direct/fluorescence; filed as Kd, often an IC50 or EC50 that approximates it; ≥ and ≤ were set here for values at or beyond the usual limits of such assays.
Assay [2] has as its target HLA-A*02:01. The assay is described as above.
The target of a further assay is HLA-A*01:01. As to the kind of experiment: IEDB peptide-MHC binding, purified MHC/competitive/radioactivity; filed as Kd, often an IC50 or EC50 that approximates it; ≥ and ≤ were set here for values at or beyond the usual limits of such assays.
For assay [3], the target named is HLA-A*11:01. Described as above. To be noted: source organism: SARS coronavirus Tor2.
Another assay deals with HLA-A*03:01. Described as above. To be noted: source organism: SARS coronavirus Tor2.
The target of another assay is HLA-A*29:02. Described as above.
The target of the next assay is HLA-A*26:01. The assay is described as above.
Another assay deals with HLA-A*23:01. The description is as above.
The next assay concerns the target HLA-A*68:01. The description is as above. To be noted: source organism: SARS coronavirus Tor2.
The target in another assay is HLA-A*31:01. The description is as above. As to conditions: source organism: SARS coronavirus Tor2.
The target of another assay is HLA-A*30:02. The assay is described as above.
A further assay deals with HLA-A*33:01. The description is as above. To be noted: source organism: SARS coronavirus Tor2.
The next assay addresses HLA-A*24:02. The description is as above.
The next assay addresses HLA-A*32:01. The assay is described as above.
The target in assay [4] is HLA-A*11:01. As to the kind of experiment: IEDB peptide-MHC binding, purified MHC/direct/fluorescence; filed as Kd, often an IC50 or EC50 that approximates it; ≥ and ≤ were set here for values at or beyond the usual limits of such assays. To be noted: source organism: SARS-CoV1.
The target of a further assay is HLA-B*07:02. The description is as above. To be noted: source organism: SARS-CoV1.
Another assay addresses HLA-B*15:01. The description is as above. As to conditions: source organism: Rickettsia conorii.
[5] abbreviates: source organism: Vaccinia virus WR.
The mark [6] stands for this setting: source organism: Dengue virus 3 Martinique/1243/1999.
The mark [7] stands for this setting: source organism: Vaccinia virus Copenhagen.
Where [8] appears, read: source organism: Vibrio vulnificus YJ016.
[9] abbreviates: source organism: SARS coronavirus Tor2.
Where [10] appears, read: source organism: Lassa virus Josiah.
Setting [11] is: source organism: Rickettsia conorii.

As a reminder, the Kd is the equilibrium constant for the complex coming apart. Consider RILFRKPSL, for which the Kd with HLA-B*08:01 (setting [5]) is 0.0322 µM.
As for RPTIEKDVDL, the Kd with HLA-B*08:01 (setting [6]) was found to be 0.846 µM.
Broadly, the IC50 is the midpoint of a concentration-inhibition curve. High values mean weaker potency, low ones greater potency. In the assay with HLA-A*02:01 [1] (source organism: Homo sapiens), RVRFFFPSL displayed an IC50 of no less than 200 µM.
As to SEFNTYKRSG, the dissociation constant (Kd) was found to be 7.05 µM with HLA-B*44:03, 8.76 µM with HLA-B*40:01 and 2.17 µM with HLA-B*44:02.
In the case of SIKMKLVSI, the dissociation constant Kd in the assay with HLA-B*08:01 (setting [7]) is 0.0164 µM.
Consider SLGGHTVWQ, for which the Kd in the assay with HLA-A*69:01 (setting [8]) is no less than 20 µM; in the assay with HLA-A*02:01 [2] (setting [8]), 8 µM.
In the case of SLNLRIKIL, the dissociation constant Kd with HLA-B*08:01 (setting [5]) is 0.092 µM.
For SLREISNIV, the equilibrium dissociation constant (Kd) in the assay with HLA-B*08:01 (setting [5]) came to 0.0102 µM.
Consider SLRYSSKVF, for which the Kd with HLA-B*08:01 (setting [5]) was determined as 0.928 µM.
For the sequence SNAKCIEYV, in the assay with HLA-A*02:01 [1] (setting [7]), the concentration for half-maximal inhibition (IC50) came to 53.6 µM. This counts as double-digit micromolar.
With SNKRHRPIG, in the assay with HLA-B*08:01 (setting [5]), the Kd worked out at 0.0335 µM.
On the same count and under the same terms, as for SNSNRLMSI, the figure is 0.0101 µM.
Regarding STFNRFTIV, in the assay with HLA-B*08:01 (setting [5]), the Kd stood at 1.73 µM.
Take STGNYNYKY: the dissociation constant (Kd) with HLA-A*01:01 (setting [9]) was 0.388 µM; in the assay with HLA-A*11:01 [3], 0.198 µM; with HLA-A*03:01, no less than 20.4 µM; with HLA-A*29:02 (setting [9]), 0.0372 µM; with HLA-A*26:01 (setting [9]), 15.6 µM; with HLA-A*23:01 (setting [9]), no less than 77.8 µM. The Kd in the assay with HLA-A*68:01 was 1.6 µM; with HLA-A*31:01 it was no less than 77.9 µM; with HLA-A*30:02 (setting [9]) it was 0.0245 µM; with HLA-A*33:01, no less than 77.7 µM; in the assay with HLA-A*24:02 (setting [9]) it was no less than 77.6 µM.
In the case of SVYKHRLIV, the Kd in the assay with HLA-B*08:01 (setting [5]) was 0.108 µM.
As to TAIAGAWENG, the Kd with HLA-A*32:01 (setting [6]) was no less than 60.5 µM.
Take TGPCAGDFA: in the assay with HLA-A*02:01 [1] (source organism: Zaire ebolavirus), the IC50 is no less than 112 µM.
For the sequence TLVGVVVST, the IC50 with HLA-A*02:01 [1] (source organism: Vaccinia virus) came out at 55.4 µM.
On to TMFKIVYSL, for which, in the assay with HLA-A*32:01 (setting [5]), the Kd is 0.000915 µM.
Regarding TPSGTWLTY, the Kd is no less than 79.4 µM in the assay with HLA-A*01:01 (setting [9]); 0.0555 µM with HLA-A*29:02 (setting [9]); 18.6 µM in the assay with HLA-A*26:01 (setting [9]); no less than 77.8 µM with HLA-A*23:01 (setting [9]); 11.8 µM with HLA-A*30:02 (setting [9]); no less than 77.6 µM with HLA-A*24:02 (setting [9]). Besides, the Kd in the assay with HLA-A*11:01 [4] came to 4.57 µM; in the assay with HLA-B*07:02, 7.02 µM.
As for VNPGTYVYF, the 50% inhibitory concentration (IC50) with HLA-A*02:01 [1] (source organism: Variola virus) is no less than 186 µM.
With VYMPASWVM, the Kd with HLA-A*01:01 (setting [9]) is no less than 78.1 µM; in the assay with HLA-A*29:02 (setting [9]), 14.7 µM; with HLA-A*26:01 (setting [9]) it was no less than 77.9 µM; in the assay with HLA-A*23:01 (setting [9]), 5.42 µM; in the assay with HLA-A*30:02 (setting [9]) it was no less than 20.9 µM; in the assay with HLA-A*24:02 (setting [9]), 12.6 µM.
Turning to VYSDVETPHL, the Kd with HLA-A*01:01 (setting [9]) is 0.303 µM; in the assay with HLA-A*29:02 (setting [9]), 0.589 µM; in the assay with HLA-A*26:01 (setting [9]), no less than 69.7 µM; in the assay with HLA-A*23:01 (setting [9]), 0.163 µM; with HLA-A*30:02 (setting [9]), 16.1 µM; with HLA-A*24:02 (setting [9]), 0.245 µM.
As for YCNYSKYWYL, the Kd in the assay with HLA-A*01:01 (setting [10]) was 9.73 µM; with HLA-A*29:02 (setting [10]), 10.8 µM; with HLA-A*26:01 (setting [10]), no less than 69.7 µM; with HLA-A*23:01 (setting [10]) it was 1.15 µM; with HLA-A*30:02 (setting [10]), no less than 22.7 µM; in the assay with HLA-A*24:02 (setting [10]), 4.44 µM.
Consider YFSDVSAPV, for which the Kd was found to be 0.041 µM with HLA-A*69:01 (setting [11]), 0.705 µM with HLA-B*15:01 and 0.0279 µM in the assay with HLA-A*02:01 [2] (setting [11]).
